Laboratory results reported in patent US20240368267A1 (KODIAK SCIENCES, published 2024).
Substitutions are numbered along the chain they refer to. Numbers in names are those of the source.

B1: anti-IL-6 antibody, heavy chain I51A, G66D / light chain WT (antibody, human IgG1, V domains shown)
VH: EVQLVESGGGLVQPGGSLRLSCAASGFTFSPFAMSWVRQAPGKGLEWVAKASPGGSWTYYSDTVTDRFTFSLDTSKSTAYLQMNSLRAEDTAVYYCARQLWGYYALDIWGQGTLVTVSS
VL: DIQLTQSPSSLSASVGDRVTITCSASISVSYMYWYQQKPGKAPKLLIYDMSNLASGVPSRFSGSGSGTDFTLTISSLQPEDFATYYCMQWSGYPYTFGQGTKVEIK
notes: Derived as m2; Engineered human IgG1
B2: anti-IL-6 antibody, heavy chain I51W, G66D / light chain WT (antibody, human IgG1, V domains shown)
VH: B1 VH with A51W
VL: B1 VL
notes: as for B1
B3: anti-IL-6 antibody, heavy chain I51R, G66D / light chain WT (antibody, human IgG1, V domains shown)
VH: B1 VH with A51R
VL: B1 VL
notes: as for B1
B4: anti-IL-6 antibody, heavy chain I51F, G66D / light chain WT (antibody, human IgG1, V domains shown)
VH: B1 VH with A51F
VL: B1 VL
notes: as for B1
B5: anti-IL-6 antibody, heavy chain I51E, G66D / light chain WT (antibody, human IgG1, V domains shown)
VH: B1 VH with A51E
VL: B1 VL
notes: as for B1
B6: anti-IL-6 antibody, heavy chain I51L, G66D / light chain WT (antibody, human IgG1, V domains shown)
VH: B1 VH with A51L
VL: B1 VL
notes: as for B1
B7: anti-IL-6 antibody, heavy chain I51Q, G66D / light chain WT (antibody, human IgG1, V domains shown)
VH: B1 VH with A51Q
VL: B1 VL
notes: as for B1
B8: anti-IL-6 antibody, heavy chain I51H, G66D / light chain WT (antibody, human IgG1, V domains shown)
VH: B1 VH with A51H
VL: B1 VL
notes: as for B1
B9: anti-IL-6 antibody, heavy chain I51G, G66D / light chain WT (antibody, human IgG1, V domains shown)
VH: B1 VH with A51G
VL: B1 VL
notes: as for B1
B10: anti-IL-6 antibody, heavy chain I51P, G66D / light chain WT (antibody, human IgG1, V domains shown)
VH: B1 VH with A51P
VL: B1 VL
notes: as for B1
B11: anti-IL-6 antibody, heavy chain I51T, G66D / light chain WT (antibody, human IgG1, V domains shown)
VH: B1 VH with A51T
VL: B1 VL
notes: as for B1
B12: anti-IL-6 antibody, heavy chain I51V, G66D / light chain WT (antibody, human IgG1, V domains shown)
VH: B1 VH with A51V
VL: B1 VL
notes: as for B1
B13: anti-IL-6 antibody, heavy chain I51K, G66D / light chain WT (antibody, human IgG1, V domains shown)
VH: B1 VH with A51K
VL: B1 VL
notes: as for B1
B14: anti-IL-6 antibody, heavy chain I51S, G66D / light chain WT (antibody, human IgG1, V domains shown)
VH: B1 VH with A51S
VL: B1 VL
notes: as for B1
B15: anti-IL-6 antibody, heavy chain I51D, G66D / light chain WT (antibody, human IgG1, V domains shown)
VH: B1 VH with A51D
VL: B1 VL
notes: as for B1

What follows are binders tested against T1, human IL-6 (human, UniProt P05231 30-212) (assay: SPR (Biacore T200), antibody from cell supernatant captured on Protein A, IL-6 flowed over, 37 C).
T1 construct: also called interleukin-6
T1 sequence (P05231 30-212 limits assumed): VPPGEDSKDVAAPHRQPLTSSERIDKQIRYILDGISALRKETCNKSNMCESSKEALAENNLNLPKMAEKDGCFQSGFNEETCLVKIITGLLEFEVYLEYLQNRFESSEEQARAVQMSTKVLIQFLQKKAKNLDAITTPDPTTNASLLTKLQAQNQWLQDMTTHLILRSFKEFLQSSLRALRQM
Protocol: Those four positions were selected based on their tolerance for mutations as observed in bacterial and mammalian screens. […] These cultures were centrifuged and supernatants containing secreted antibodies were harvested and diluted in HBS-EP+ running buffer (1:20 ratio).
Antibodies were captured on a Protein A chip (GE) by injecting 1:20 cell supernatant dilutions at 10 μL/min for 60 seconds. […] The sensor chip was regenerated by a 60 seconds injection of 10 mM Glycine pH 1.7 at the flow rate of […]. […] For this setup, 1 μg/mL of purified antibody was injected over a Protein A chip at 10 μL/min for 25 seconds. […] The sensor chip was regenerated by a 60 seconds injection of 10 mM Glycine pH 1.7 at flow rate of 50 μL/min. Data analysis for supernatant and purified samples were performed using BIAevaluation software (GE). All sensorgrams were double reference subtracted and fit using a 1:1 Langmuir binding model.

| Binder | Kd [nM] | koff [s⁻¹] | kon [M⁻¹ s⁻¹] |
| --- | --- | --- | --- |
| B1 | 0.327 | 0.000576 | 1.76e+06 |
| B2 | 4.93 | 0.00943 | 1.91e+06 |
| B3 | 0.169 | 0.000202 | 1.2e+06 |
| B4 | 2.24 | 0.00305 | 1.36e+06 |
| B5 | 1.01 | 0.00076 | 754000 |
| B6 | 0.386 | 0.000733 | 1.9e+06 |
| B7 | 0.336 | 0.000648 | 1.93e+06 |
| B8 | 0.348 | 0.000529 | 1.52e+06 |
| B9 | 0.428 | 0.000581 | 1.36e+06 |
| B10 | 387 | 0.00612 | 15800 |
| B11 | 0.232 | 0.000415 | 1.79e+06 |
| B12 | 0.00369 | 6.68e-06 | 1.81e+06 |
| B13 | 0.291 | 0.000402 | 1.38e+06 |
| B14 | 0.191 | 0.000362 | 1.89e+06 |
| B15 | 2.69 | 0.00267 | 991000 |
